Where a chain is given by its changes, count along the chain named. Numbers in names are those of the source.
B1: Mfn2^S378P with a C-terminal 3×FLAG tag (natural protein, UniProt Q80U63 1-757, looked up)
chain: MSLLFSRCNSIVTVKKDKRHMAEVNASPLKHFVTAKKKINGIFEQLGAYIQESASFLEDTHRNTELDPVTTEEQVLDVKGYLSKVRGISEVLARRHMKVAFFGRTSNGKSTVINAMLWDKVLPSGIGHTTNCFLRVGGTDGHEAFLLTEGSEEKKSVKTVNQLAHALHQDEQLHAGSMVSVMWPNSKCPLLKDDLVLMDSPGIDVTTELDSWIDKFCLDADVFVLVANSESTLMQTEKQFFHKVSERLSRPNIFILNNRWDASASEPEYMEEVRRQHMERCTSFLVDELGVVDRAQAGDRIFFVSAKEVLSARVQKAQGMPEGGGALAEGFQVRMFEFQNFERQFEECISQSAVKTKFEQHTVRAKQIAEAVRLIMDPLHIAAQEQRVYCLEMREERQDRLRFIDKQLELLAQDYKLRIKQITEEVERQVSTAMAEEIRRLSVLVDEYQMDFHPSPVVLKVYKNELHRHIEEGLGRNLSDRCSTAIASSLQTMQQDMIDGLKPLLPVSMRNQIDMLVPRQCFSLSYDLNCDKLCADFQEDIEFHFSLGWTMLVNRFLGPKNSRRALLGYSDQVQRPLPLTPANPSMPPLPQSSLTQEELMVSMVTGLASLTSRTSMGILVVGGVVWKAVGWRLIALSFGLYGLLYVYERLTWTTKAKERAFKRQFVEYASEKLQLIISYTGSNCSHQVQQELSGTFAHLCQQVDITRDNLEQEIAAMNKKVEALDSLQSRAKLLRNKAGWLDSELNMFTHQYLQPSR
notes: Mitofusin 2 (Mfn2) with the CMT2A-associated substitution S378P; CMT2A-associated (patient) substitution; also called Mfn2-FLAG variant S378P; source: Mfn2-null MEFs, retroviral transduction, clonal population; isolated mitochondria, lysed; not shown: 3×FLAG, C-terminal, kept
B2: Mfn2^Q386P with a C-terminal 3×FLAG tag (natural protein, UniProt Q80U63 1-757, looked up)
chain: B1 chain with P378S, Q386P
notes: Mitofusin 2 (Mfn2) with the CMT2A-associated substitution Q386P; CMT2A-associated (patient) substitution; also called Mfn2-FLAG variant Q386P; source: Mfn2-null MEFs, retroviral transduction, clonal population; isolated mitochondria, lysed; not shown: 3×FLAG, C-terminal, kept
B3: Mfn2^A383V with a C-terminal 3×FLAG tag (natural protein, UniProt Q80U63 1-757, looked up)
chain: B1 chain with P378S, A383V
notes: Mitofusin 2 (Mfn2) with the CMT2A-associated substitution A383V; CMT2A-associated (patient) substitution; also called Mfn2-FLAG variant A383V; source: Mfn2-null MEFs, retroviral transduction, clonal population; isolated mitochondria, lysed; not shown: 3×FLAG, C-terminal, kept
B4: Mfn2^C390F with a C-terminal 3×FLAG tag (natural protein, UniProt Q80U63 1-757, looked up)
chain: B1 chain with P378S, C390F
notes: Mitofusin 2 (Mfn2) with the CMT2A-associated substitution C390F; CMT2A-associated (patient) substitution; also called Mfn2-FLAG variant C390F; source: Mfn2-null MEFs, retroviral transduction, clonal population; isolated mitochondria, lysed; not shown: 3×FLAG, C-terminal, kept

Tests used:
[1] = molecular target: Mfn2^WT with a C-terminal 3×FLAG tag (UniProt Q80U63); assay: native gel or EMSA; BN-PAGE of untreated isolated mitochondria, lysed in 1% digitonin; 4–16% Bis-Tris native gel at 4°C; anti-FLAG blot
[2] = molecular target: the molecule itself; assay: as above

Row | Molecule | stoichiometry N [1] | stoichiometry N [2]
1 | Mfn2^WT with a C-terminal 3×FLAG tag (from UniProt Q80U63 1-757) (natural protein) | 2 | –
2 | B1 | – | 2
3 | B2 | – | 2
4 | B3 | – | 2
5 | B4 | – | 2

— article PMC7136618, “Defective nucleotide-dependent assembly and membrane fusion in Mfn2 CMT2A variants improved by Bax” (Life Science Alliance, 2020)
